# In the DeepSol protein solubility set:
# Assay: soluble on expression in E. coli; label from the status in PepcDB or PDB records
row,Sequence,soluble on expression in E. coli
1,MPLPPHLSDRVVALQPSLTLAISARAKALQQEGRDICSLSAGEPDFNTPEFIIDATVKALRDGITRYGPAAGDPELREAIATKLSKENTVPTNAEQVLVTNGGKQAIFNLFQVILNPGDEVLIPAPYWLSYPEMARLAGAKVTTLPSTPENGFCLDLNNLEASIGPKTRLLLLNSPGNPTGRVMARKELETLADLLRDHPQILVMSDEIYEFILEEGQQHYSFSAIAPDLSNRTFIVNGFAKGWAMTGWRLGYLAGPADAVKAATALQSQSTSNVCSFAQRGALAALQGSRECVKKMVKSYNTRRELLTSGLLSLEGMSLVPPKGAFYAFPKLPPESLDSVSFCEQALENHGLAMVPGAAFGDDSCVRLTCAVSPETICDGLERLRKALKQS,not soluble
2,MGSDKIHHHHHHMQITLNIEHIRADTPLPPLFRVRQRWQTSPIADVAAVVYAELDKIGLAGHIQPGMRIAVTAGSRGISNIVTITAAAVAWLRAHGAEPFIVPAMGSHGGATAEGQVALLASLGITEQSVGCPIRATMDVVELGRIADGTPVYMDRFAAEADGVLVINRIKTHTSFKAPIESGLAKMCAVGLGKRQGAEIVHRTAVYGLKEQLVPMARMVVERGRVLAGLAILEDARDQTAAIVALPPAEIGGAGEAELLLRSKEMMARLPFDRLDVLVVDRIGKNISGTGMDTNVIGRLPIPGEPPPDRPVINVIVVLDLTPETHGNANGIGLADITTARLAAKIDFHATYVNVLTAGLVGLCKGGLPITLPTERDAVAMAIKTCGQPDLAAVRLVRIPDTLHLEELLVSEALLPEVTAHPNLELLGPAEWVLDCVEG,not soluble
3,MRPVVHVVGGGPGDPELLTVKGARLLGEARFVLYTGSLFPEGALRELAPKAALLDSKGMTLEEIVLALAEEARKGGGVVRLHSGDPGLYGTLLEEKEALEALGVGVEVVPGVTAAFALAARAGLSLTAPGVAQAVAFTRLGVRTPVPEGQDPKSLARKGLTLAVYLSGMHPRRLSRELLEAGLPGDTPVLYGHKVAQPGEEVGLTDLKGLAHLPARDTTVYLVGEALRAKGVRSLLYDPSFKHRYRR,soluble
4,MSLDLLISNCTVFGREGSDAIGINEGRIAFIGIDRDLRAKKRIDLSGKIVFPGFIDSHAHLLSTGLEDIRLNLYHTKSKEEVVERIAEYSKGKEKVIAYRWDESMWKPQSSYLTSSDINGIPVPVVAFRRDGHMAVANQKAMDVIGTTRKEGIFKEDDIELLEPLVKPNEAEIRDALNTAANRAISLGIVAVRDMVDISTYNEYKNIKTPLKIYKVLYSDSIFDKFGTSSQNDWGIKAFLDGSLGSRTAAHKGWDASNLKMDESKFENFAKQIWMHNLPLAVHAIGEVAVETAAKVFYRNAGRNRNSIEHFELVDDDVLDYITKTTIISSQPNFLEWAGKGGMYEDRVGGEWLYKNNPFRWMIDRGIHLAFGSDSMPIGPMYGIYYAVNSEYQRQKITLEEAVRCYSEGGSYLLGTEGYMGMLRVGYSADMAVFDEKLLKDLRGIKAAKPEITIINGKIYTNEGHHHHHH,not soluble
5,SASMDVEEFIGQNRQLADRVEAFRGFSESDKHWKGRREFIFRNMADFPEPQVDHLLALSMVWQNHVFMGCRYSSELLQRVMEMAEGIEVEDAPVFKTRDEIIRQQKQR,soluble
6,MSLDQVDKALTPKEKAETGVPFYASNQAGIITAQQTYCYIASFDIQTESRQILQDLFVKWTKFADLTTSGGVLRDVDNDMLPPNDTGEADGLGISNFTVTLGYGPTFFEKDGKDRFGVKAKKPKYLEKIPHMAHDSLDEAYSDGDLCIQVCADDQQVAFHGIRNFIRLASGVAVVRWIEEGFLSAPKNETPRNLFGFKDGTANVDHDSNKGYKDVVWAEKDEPEWMRNGSYLGYRKIQMLIEIWDRSSLLDQEDTFGRKKASGAPYHKKHEHDKVDPSKLPADSHVRLAKDTKQQMHRRAYSYTNGIDKSTGTIDAGLLFICFTQNPAKQFLPMLSIMGKMDKLNEYTVPIGSAMFACQGGLAPGEIFGEKLLEGHHHHHH,soluble
7,KTMLKIKMAEDAEMIDEVVVTALGIKREEKALGYAVQKVGGSKLSTVKPVNIATSLTGKVAGLNVTNSTEFNTAPTLKLRGETPLLVVDGVPYSNISLNDIAADDIESVDVLKGATASALYGARGGSGAIMVTTKKGSQEG,not soluble
8,MGSDKIHHHHHHMSQNASNDHMALSEDYVRNFFTYADPDNEAMLQLYRIGVFRTAKALSAGWIMPDEDARTARNLEYLRDNFEPGDVSVGELVSSETQLASFPDIYFRIRKVLDSPNSSADDISREISNDLGLTAKLLKLVNSPFYGLAHTVEDVSHAIAIVGVEEVSTLALGISAINVFKDIPQELIDMKAFWKHSVSCGVFAKLIASRIEGMKADKFFTAGLLHDVGRLIIFKKMPYASVQLLLYARENQLPVVESEEDHLGFDHTQVAKQLLTEWKFPASMVDCLAFHHAPSQAQDQLAASILQLADNMANAMEISSGGMYLLPGMEEGAWERIPLQGDDLVEIVGLFDSHIEELFKAIL,not soluble
9,MGSDKIHHHHHHMNYQQLFRNRLAVLATMHQKEKVIAPLLEQELGIKVIVPPDFNTDIFGTFTREVKRPGTQIAAARLKAEKVLELTGENLAIASEGSFAPHPLVPYIYSNREIIILLDKINDIEIIGEEFSTYTNFNHQAVESLDEAYTFAKKVGFPEHGLVVWFENSEKKCHEIIKGITQETALIEAINFGLEKSPNSKINLETDMRAIYNPTRMKNIEKATHNLLQKISSCCPQCHTPGFETTERIKGLPCELCHTPTTLTLRAIYQCKKCGFRQDKLFPNGIEFADPSQCVYCNP,not soluble
10,MQTSNITNHERNDSSWMSTVKSTTEVSWNKLSFCDILLKIITFGIYSPHETLAEKHSEKKLMDSFSPSLSQDKMDGEFAHANIDGISIRLCLNKGICSVFYLDGDKIQSTQLSSKEYNNLLSSLPPKQFNLGKVHTITAPVSGNFKTHKPAPEVIETAINCCTSIIPNDDYFHVKDTDFNSVWHDIYRDIRASDSNSTKIYFNNIEIPLKLIADLINELGINEFIDSKKELQMLSYNQVNKIINSNFPQQDLCFQTEKLLFTSLFQDPAFISALTSAFWQSLHITSSSVEHIYAQIMSENIENRLNFMPEQRVINNCGHIIKINAVVPKNDTAISASGGRAYEVSSSILPSHITCNGVGINKIETSYLVHAGTLPSSEGLRNAIPPESRQVSFAIISPDV,not soluble
11,MSLKHMLIAGGGIGGLSAAISLRKAGFSVTLCEAASENRKTGAGILQPQNALAVLKELGVFEDCCKHGFQTEWFKTFDEQGNLLFQVSESFLDDSLPGRNNILRKTLNDILMKHAEAVGVDIKWGKKVVAYEETAESVTALCEDGEKMQADILAGFDGIHSVVRDKMLQKETEKEHLGMGAWRFYIELPDYTFEDATFMYRSGDTQIGVVPLAQHAGYVFVLQPCTSDYWDEEDTRFDRVKEILSGFRGLDFVTKHMSKQHPVIFNKLEQVAVQEPWHKGRVIIGGDAAHAGAPTLAQGAAMAIEDAIVLAEELQNHADHETALQAYYKRRAPRALKVQNLSSEIVRRRLKGEPGAEELIGECYAVLREGYEGGSHHHHHH,soluble
12,MDLDADFLLLHLSDSALPTGAFAHSFGFETYMDAERITNAEEFQDWLKVLLKVQLTSSDALAMRMFYATPTVSELKRLDERLFAGTPAREIREANARMGTRMAEIVAETYSVPLIVEYLELIQHRELSGHPALALALATHSAGIDVDRAIHAHLTATVSSLIQNAVRGIPLGQMAGQRVMFAMREHIGAAVKRSANLDEIDFCSGDPGLDISQMVHETQRARLFMSLEHHHHHH,not soluble
13,SRVDKFSKSDIIVSPSILSANFSKLGEQVKAIEQAGCDWIHVDVMDGRFVPNITIGPLVVDSLRPITDLPLDVHLMIVEPDQRVPDFIKAGADIVSVHCEQSSTIHLHRTINQIKSLGAKAGVVLNPGTPLTAIEYVLDAVDLVLIMSVNPGFGGQSFIESQVKKISDLRKICAERGLNPWIEVDGGVGPKNAYKVIEAGANALVAGSAVFGAPDYAEAIKGIKTSKRPE,soluble
14,MASSKIVPLYQSMLNDLIRQIESGELVENAKLPSEQKLGEKYDVSRITVRRALAELENKDYIYKKQGQGSFVKNKEDIDLGIHYLDVRKAIENMNAVPEIRLEAFKLIVDGSESDVRKVMEINSDVYLYYLRYMVYADHRPVFHEQVYLPFERFPRIFNSEIVNNDLMPFLVKKYGLKASFFSHTQPALITKSNRKEFDLNVGDPMIYMQTRGIEEKEIIYYRKAAVVGNLIMYIVG,not soluble
15,SGVPVYICSSLKPDALAEAAEHQADGSFFVPRAKGLRTQKQWLAFYSESRGSVYVDEGAEHALSEQGKSLLMSGIAGIEGHFSRMDTVTVYSKATKQPLGKGRVLFGSAAAEDLLKSRKAKGVFIHRDDWISITPEIRLLLTEF,not soluble
16,MNASAPIPLNETQRLLRIQELCVLEDTSDEVFDEIVAMTAEFFQTPIALVSIVDEHRQWFRARVGLSARETPRNVSFCAYTILSDTLFEIPDATLDERFMNNSLVTGHPDIRYYAGAPLITDDGLALGSLCVIDTKPREPMSEHQTQMLKRFASLVMKRIVSLRL,not soluble
17,METPQTGYQVKTYNVPVKRYCQTLDLRDSPELIAEYRKRHSQAEVWPEILAGIREVGILEMEIYILGTRLFMIVETPVDFDWDTAMARLNTLPRQQEWEEYMSILQQAAPGMSSAEKWIPMERMFHLYNT,not soluble
18,MAKPFTPEQREELKTRIVELVHQDGRVTIRQLSDETGISRASVGRLCIELVASGDVYNSGYGLFPSEQARKDWQSARKKLSRVKVRKPVVVDPDLIWSLPDGEIRRYDRRLNIICRECRKSEAMQRVLAFYQGNFQEAIL,not soluble
19,TLVRVKKSAATLGIAIEGGANTRQPLPRIVTIQRGGSAHNCGQLKVGHVILEVNGLTLRGKEHREAARIIAEAFKTKDRDYIDFLVTEFN,soluble
20,MYYADSSPALVGLIALNARLHGIRADVVDFMAASTPAGEQAISHVYLPFSVAGVPSTFLVSM,not soluble
21,MDSTKVTLTVRGSTAFGEVIAVVGSCETLGSWCQQKAVTLQPAEEDGTLWRTTIHVPRGAETKYRYFKAFILESKNAGGPCQVIVNRWETHQLPRSLSPSEPELVVDDGHFGVHDGAECVDSGWLTCQTEIRLRLHYSVKPPVSITKKKFKTSRIRLKPMLEGVEEEEDED,soluble
22,MLFISSDNQKEKRGMAGNKKINRREEILQALAEMLESNEGASRITTAKLAKQVGVSEAALYRHFPSKARMFEGLIEFIEESLMSRINRIFDEEKDTLNRIRLVMQLLLAFAERNPGLTRILSGHALMFENERLRDRINQLFERIETSLRQILRERKLREGKSFPVDENILAAQLLGQVEGSLNRFVRSDFKYLPTANFDEYWALLSAQIK,soluble
23,MRDMIIVVPIGEVPSDVLSFLSENIESFYMKFGIGVKIIGSLPISAFSHAYDFYRNQYLARHFLPALSIIRRDYKALAVMGVTEVDLYESGLNFIFGIAHPGFGVALISLHRLYPEFYGEPPDRKLLKERALKEAMHELGHVFGLEHCPNPKCVMHFSNSIIDTDIKSWMYCKNCLRKLEERLGRGYVRGRTLEHHHHHH,not soluble
24,MGSDKIHHHHHHMVRPASRSERASLRIMNINPWRCEVSEKLLKQVNDKVSLCEKIAAEGFSFVPGQQIREWLLASNSEALQDWQAFDASWDGMPLDEYMADGGRYRRRRFATLSAATEGPIMLEPHQPHYQSREYNSLNGGIARIYEPIPPAVIQGQTMQSILQLSRDLFSHLRPQTRWHIEAHQFRIETNQHERGQPAPEGVHRDGVDYVLVMMVKRVNISSGTTTLHNLDKVVLDSFTLTNPLDCALVDDRRCMHGVTPVEQIDPAKAAYRDVLVVTFTAKL,not soluble
